# T1: CD14 on cells expressing CD14 (monocyte lineage/NK cells) (UniProt P08571 20-345, limits assumed)
# T1 construct: whole, on cells
# T1 sequence (looked up): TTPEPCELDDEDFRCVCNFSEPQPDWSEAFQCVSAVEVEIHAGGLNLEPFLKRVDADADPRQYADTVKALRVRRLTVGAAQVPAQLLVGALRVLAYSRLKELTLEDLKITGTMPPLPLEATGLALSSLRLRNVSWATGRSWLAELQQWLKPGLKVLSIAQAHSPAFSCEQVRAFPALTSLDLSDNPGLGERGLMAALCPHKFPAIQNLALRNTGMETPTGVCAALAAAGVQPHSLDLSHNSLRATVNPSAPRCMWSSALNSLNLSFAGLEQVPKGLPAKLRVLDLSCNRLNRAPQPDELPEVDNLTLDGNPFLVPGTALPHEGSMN
# Legend:
# [1] = target: human αβ T cell receptor (αβ TCR) on T cells (human); assay: cell-based or functional assay
# [2] = target: T1, CD14 on cells expressing CD14 (monocyte …); assay: flow cytometry on PBMC from 6 donors
binder,measurement,setting,value
"TOL101 murine anti-αβ TCR monoclonal IgM antibody produced by the hybridoma TOL101 MCB (ATCC PTA-13293) (antibody, Murine IgM kappa (IgMκ); It was detected with anti-mouse IgM in flow cytometry; also called TOL101 antibody; TOL101 mAb) heavy: QVQLQQSGAELARPGASVKMSCKASGYTFTSYTMHWVKQRPGQGLEWIGYINPSSGYTNYNQKFKDKATLTADKSSSTAYMQLSSLTSEDSAVYYCARWRDAYYAMDYWGQGTSVTVSSESQSFPNVFPLVSCESPLSDKNLVAMGCLARDFLPSTISFTWNYQNNTEVIQGIRTFPTLRTGGKYLATSQVLLSPKSILEGSDEYLVCKIHYGGKNRDLHVPIPAVAEMNPNVNVFVPPRDGFSGPAPRKSKLICEATNFTPKPITVSWLKDGKLVESGFTTDPVTIENKGSTPQTYKVISTLTISEIDWLNLNVYTCRVDHRGLTFLKNVSSTCAASPSTDILTFTIPPSFADIFLSKSANLTCLVSNLATYETLNISWASQSGEPLETKIKIMESHPNGTFSAKGVASVCVEDWNNRKEFVCTVTHRDLPSPQKKFISKPNEVHKHPPAVYLLPPAREQLNLRESATVTCLVKGFSPADISVQWLQRGQLLPQEKYVTSAPMPEPGAPGFYFTHSILTVTEEEWNSGETYTCVVGHEALPHLVTERTVDKSTGKPTLYNVSLIMSDTGGTCY light: QIVLTQSPAIMSASPGEKVTMTCSASSSVSYMHWYQQKSGTSPKRWIYDTSKLASGVPARFSGSGSGTSYSLTISSMEAEDAATYYCQQWSSNPFTFGSGTKLEIKRADAAPTVSIFPPSSEQLTSGGASVVCFLNNFYPKDINVKWKIDGSERQNGVLNSWTDQDSKDSTYSMSSTLTLTKDEYERHNSYTCEATHKTSTSPIVKSFNRNEC GDDEATILADNKCMCTRVTSRIIPSTEDPNEDIVERNIRIVVPLNNRENISDPTSPLRRNFVYHLSDVCKKCDPVEVELEDQVVTATQSNICNEDDGVPETCYMYDRNKCYTTMVPLRYHGETKMVQAALTPDSCYPD",calcium flux in CD4 T cells (Fluo-4) (% of CD4 T cells),[1],15
same,binding result,[2],no binding

# Reference: patent publication US20130273089A1 (TOLERA THERAPEUTICS, published 2013)
